# Values of other authors in paper PMC8145179.
# Target: Cys215 (UniProt position 215, PVVVHCSAGIG)
# Settings: apo (ligand-free) enzyme
substance,measurement,value
Protein tyrosine phosphatase 1B (PTP1B) (Homo sapiens (inferred; not stated in the article)),pKa,5.4
